Data published in patent US20260167699A1 (Chugai, published 2026).
Numbering of substitutions follows the chain as printed. Blank lines part the entries; values can stand above or below the binder they belong to.

How the values were obtained:
FcγRIa = target: T1, FcγRIa (human, UniProt P12314 16-292); assay: SPR, relative to GpH7-A5/GpH7-B3/GpL16-k0 =100
T1 construct: extracellular domain; also called 1a

FcγRIIa(H) = target: T2, FcγRIIa(H) (human, UniProt P12318 34-217); assay: SPR, relative to GpH7-A5/GpH7-B3/GpL16-k0 =100
T2 construct: extracellular domain; also called 2aH
T2 sequence: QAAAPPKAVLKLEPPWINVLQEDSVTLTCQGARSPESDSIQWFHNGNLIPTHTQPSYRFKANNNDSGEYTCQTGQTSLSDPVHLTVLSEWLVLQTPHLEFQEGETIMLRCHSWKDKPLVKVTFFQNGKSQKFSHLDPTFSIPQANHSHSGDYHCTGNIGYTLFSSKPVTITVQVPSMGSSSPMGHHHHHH

FcγRIIa(R) = target: T3, FcγRIIa(R) (human, UniProt P12318 34-217); assay: SPR, relative to GpH7-A5/GpH7-B3/GpL16-k0 =100
T3 construct: extracellular domain; also called 2aR
T3 sequence: T2 sequence with H134R

FcγRIIb = target: T4, FcγRIIb (human, UniProt P31994 43-217); assay: SPR, relative to GpH7-A5/GpH7-B3/GpL16-k0 =100
T4 construct: extracellular domain; also called 2b
T4 sequence: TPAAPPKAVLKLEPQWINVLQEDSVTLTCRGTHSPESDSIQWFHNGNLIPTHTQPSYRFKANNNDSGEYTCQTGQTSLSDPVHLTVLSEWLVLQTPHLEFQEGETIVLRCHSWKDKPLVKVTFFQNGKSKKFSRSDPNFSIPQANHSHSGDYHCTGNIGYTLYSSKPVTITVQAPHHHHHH

[1] = target: T5, FcγRIa extracellular domain, His-tagged (human, UniProt P12314 16-292); assay: SPR, vs GpH7-A5/GpH7-B3/GpL16-k0 =100
T5 construct: extracellular domain; also called 1a

[2] = target: T6, FcγRIIa(R) extracellular domain, His-tagged (human, UniProt P12318 34-217); assay: SPR, vs GpH7-A5/GpH7-B3/GpL16-k0 =100
T6 construct: extracellular domain; also called 2aR
T6 sequence: T2 sequence with H134R

[3] = target: T7, FcγRIIIa extracellular domain, His-tagged (human, UniProt P08637 17-208); assay: SPR, vs GpH7-A5/GpH7-B3/GpL16-k0 =100
T7 construct: extracellular domain; also called 3a

[4] = target: T8, FcγRIIa(H) extracellular domain, His-tagged (human, UniProt P12318 34-217); assay: SPR, vs GpH7-A5/GpH7-B3/GpL16-k0 =100
T8 construct: extracellular domain; also called 2aH
T8 sequence: T2 sequence

[5] = target: T9, FcγRIIb extracellular domain, His-tagged (human, UniProt P31994 43-217); assay: SPR, vs GpH7-A5/GpH7-B3/GpL16-k0 =100
T9 construct: extracellular domain; also called 2b
T9 sequence: T4 sequence

T1 sequence (P12314 other isoform, or with tags, fused parts or gaps): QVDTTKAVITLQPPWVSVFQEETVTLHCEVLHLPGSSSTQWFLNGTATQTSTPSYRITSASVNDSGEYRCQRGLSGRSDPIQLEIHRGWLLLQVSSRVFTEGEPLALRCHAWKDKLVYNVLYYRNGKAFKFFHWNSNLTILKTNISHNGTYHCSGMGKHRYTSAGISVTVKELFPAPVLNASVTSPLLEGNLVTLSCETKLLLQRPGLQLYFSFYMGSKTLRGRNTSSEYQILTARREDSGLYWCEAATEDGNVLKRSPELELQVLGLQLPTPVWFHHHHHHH
T5 sequence (P12314 other isoform, or with tags, fused parts or gaps): as above
T7 sequence (P08637 other isoform, or with tags, fused parts or gaps): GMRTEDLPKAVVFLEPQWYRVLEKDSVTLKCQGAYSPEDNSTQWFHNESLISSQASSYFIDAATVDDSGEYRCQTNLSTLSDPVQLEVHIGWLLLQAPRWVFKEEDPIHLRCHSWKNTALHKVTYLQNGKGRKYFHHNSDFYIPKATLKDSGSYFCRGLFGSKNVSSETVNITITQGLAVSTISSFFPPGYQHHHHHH

- He/Con 1a [1]: 106 % of control
- He/Con 2aR [2]: 186 % of control
- He/Con 3a [3]: 179 % of control
- He/Con 2aH [4]: 107 % of control
- He/Con 2b [5]: 326 % of control
B4: GpH7-A5/GpH7-B3 variant S267_09D/GpL16-k0 (antibody, human IgG1, kappa)
heavy 1: not shown
heavy 2: not shown
light: DIVMTQSPLSLPVTPGEPASISCQASESLVHSNRNTYLHWYLQKPGQSPQLLIYKVSNRFSGVPDRFSGSGSGTDFTLKISRVEAEDVGVYYCSQNTHVPPTFGQGTKVEIERTVAAPSVFIFPPSDEQLKSGTASVVCLLNNFYPREAKVQWKVDNALQSGNSQESVTEQDSKDSTYSLSSTLTLSKADYEKHKVYACEVTHQGLSSPVTKSFNRGEC

- He/Con 1a (FcγRIa): 110%
- He/Con 2aH (FcγRIIa(H)): 88.3%
- He/Con 2aR (FcγRIIa(R)): 91%
- He/Con 2b (FcγRIIb): 71.9%
B8: GpH7-A5/GpH7-B3 variant A330_18N/GpL16-k0 (antibody, human IgG1, kappa)
heavy 1: not shown
heavy 2: not shown
light: B4 light
notes: He Ab: heterodimerized IgG1, one H chain mutated

- He/Con 1a [1]: 94.9 % of control
- He/Con 2aR [2]: 152 % of control
- He/Con 3a [3]: 117 % of control
- He/Con 2aH [4]: 106 % of control
- He/Con 2b [5]: 248 % of control
B9: GpH7-A5/GpH7-B3 variant V266_08L/GpL16-k0 (antibody, human IgG1, kappa)
heavy 1: not shown
heavy 2: not shown
light: B4 light

- He/Con 1a [1]: 99.9 % of control
- He/Con 2aR [2]: 121 % of control
- He/Con 3a [3]: 53.3 % of control
- He/Con 2aH [4]: 72.1 % of control
- He/Con 2b [5]: 110 % of control
B13: GpH7-A5/GpH7-B3 variant S267_01G/GpL16-k0 (antibody, human IgG1, kappa)
heavy 1: not shown
heavy 2: not shown
light: B4 light

- He/Con 1a [1]: 96.1 % of control
- He/Con 2aR [2]: 129 % of control
- He/Con 3a [3]: 113 % of control
- He/Con 2aH [4]: 107 % of control
- He/Con 2b [5]: 160 % of control
B15: GpH7-A5/GpH7-B3 variant V266_07I/GpL16-k0 (antibody, human IgG1, kappa)
heavy 1: not shown
heavy 2: not shown
light: B4 light

- He/Con 1a [1]: 93.8 % of control
- He/Con 2aR [2]: 88.8 % of control
- He/Con 3a [3]: 56.8 % of control
- He/Con 2aH [4]: 69.7 % of control
- He/Con 2b [5]: 85.1 % of control
B16: GpH7-A5/GpH7-B3 variant V266_02A/GpL16-k0 (antibody, human IgG1, kappa)
heavy 1: not shown
heavy 2: not shown
light: B4 light

Second part, the binder before the results:

B1: GpH7-A5/GpH7-B3 variant A327_09D/GpL16-k0 (antibody, human IgG1, kappa)
heavy 1: not shown
heavy 2: not shown
light: B4 light
notes: as for B8
- He/Con 1a (FcγRIa): 105%
- He/Con 2aH (FcγRIIa(H)): 124%
- He/Con 2aR (FcγRIIa(R)): 159%
- He/Con 2b (FcγRIIb): 214%

B2: GpH7-A5/GpH7-B3 variant A327_13S/GpL16-k0 (antibody, human IgG1, kappa)
heavy 1: not shown
heavy 2: not shown
light: B4 light
notes: as for B8
- He/Con 1a (FcγRIa): 105%
- He/Con 2aH (FcγRIIa(H)): 84.4%
- He/Con 2aR (FcγRIIa(R)): 98.6%
- He/Con 2b (FcγRIIb): 99%

B3: GpH7-A5/GpH7-B3 variant A327_19Q/GpL16-k0 (antibody, human IgG1, kappa)
heavy 1: not shown
heavy 2: not shown
light: B4 light
notes: as for B8
- He/Con 1a (FcγRIa): 98.5%
- He/Con 2aH (FcγRIIa(H)): 79.6%
- He/Con 2aR (FcγRIIa(R)): 77.7%
- He/Con 2b (FcγRIIb): 67.5%

B5: GpH7-A5/GpH7-B3 variant A327_06M/GpL16-k0 (antibody, human IgG1, kappa)
heavy 1: not shown
heavy 2: not shown
light: B4 light
notes: as for B8
- He/Con 1a (FcγRIa): 106%
- He/Con 2aH (FcγRIIa(H)): 89.3%
- He/Con 2aR (FcγRIIa(R)): 80%
- He/Con 2b (FcγRIIb): 74.1%

B6: GpH7-A5/GpH7-B3 variant A330_16H/GpL16-k0 (antibody, human IgG1, kappa)
heavy 1: not shown
heavy 2: not shown
light: B4 light
notes: as for B8
- He/Con 1a (FcγRIa): 109%
- He/Con 2aH (FcγRIIa(H)): 110%
- He/Con 2aR (FcγRIIa(R)): 111%
- He/Con 2b (FcγRIIb): 99%

B7: GpH7-A5/GpH7-B3 variant A330_01G/GpL16-k0 (antibody, human IgG1, kappa)
heavy 1: not shown
heavy 2: not shown
light: B4 light
notes: as for B8
- He/Con 1a (FcγRIa): 109%
- He/Con 2aH (FcγRIIa(H)): 107%
- He/Con 2aR (FcγRIIa(R)): 122%
- He/Con 2b (FcγRIIb): 117%

B10: GpH7-A5/GpH7-B3 variant A327_10E/GpL16-k0 (antibody, human IgG1, kappa)
heavy 1: not shown
heavy 2: not shown
light: B4 light
notes: as for B8
- He/Con 1a (FcγRIa): 106%
- He/Con 2aH (FcγRIIa(H)): 108%
- He/Con 2aR (FcγRIIa(R)): 142%
- He/Con 2b (FcγRIIb): 175%

B11: GpH7-A5/GpH7-B3 variant A330_03V/GpL16-k0 (antibody, human IgG1, kappa)
heavy 1: not shown
heavy 2: not shown
light: B4 light
notes: as for B8
- He/Con 1a (FcγRIa): 109%
- He/Con 2aH (FcγRIIa(H)): 86.1%
- He/Con 2aR (FcγRIIa(R)): 84%
- He/Con 2b (FcγRIIb): 59.2%

B12: GpH7-A5/GpH7-B3 variant A330_07I/GpL16-k0 (antibody, human IgG1, kappa)
heavy 1: not shown
heavy 2: not shown
light: B4 light
notes: as for B8
- He/Con 1a (FcγRIa): 109%
- He/Con 2aH (FcγRIIa(H)): 94.4%
- He/Con 2aR (FcγRIIa(R)): 96%
- He/Con 2b (FcγRIIb): 75.8%

B14: GpH7-A5/GpH7-B3 variant A330_08L/GpL16-k0 (antibody, human IgG1, kappa)
heavy 1: not shown
heavy 2: not shown
light: B4 light
notes: as for B8
- He/Con 1a (FcγRIa): 110%
- He/Con 2aH (FcγRIIa(H)): 94.7%
- He/Con 2aR (FcγRIIa(R)): 99.7%
- He/Con 2b (FcγRIIb): 79.6%
